Data from article PMC4731797.

Target: E. coli 70S ribosome (E. coli (endogenous in MRE600)) (UniProt P0AG67)
Experiment: co-purification with ribosomes isolated from cell extract; 70S ribosomes from E. coli MRE600, low salt wash (0.75 M NH4Cl; 0.6 M for 2D-PAGE); 12% SDS-PAGE and 2D-PAGE, MALDI-TOF/TOF mass spectrometry, western blot with anti-AdhE; occupancy from band intensities with L2 as 100%

Row | occupancy | Substance
1 | 60% | outer membrane protein C (OmpC), co-purified with the E. coli 70S ribosome (from UniProt P06996 22-367) (natural protein)
2 | 50% | aldehyde-alcohol dehydrogenase E (AdhE), co-purified with the E. coli 70S ribosome (from UniProt P0A9Q7 1-891) (natural protein)
